Data as given in doi:10.1101/2020.04.03.024018, “High-affinity agonist binding to C5aR results from a cooperative two-site binding mechanism” (bioRxiv, 2020).

Key:
Conditions in all cases: both partners purified
[1] = target: T1, C5aRΔTyr mutant (Y11F and Y14F) (human, UniProt P21730 1-350, Y11F | Y14F); assay: single-molecule force spectroscopy (FD-based AFM); ligand on the AFM tip (PEG27 linker, tris-NTA-Ni2+); receptor in DOPC/CHS liposomes adsorbed on mica; high loading rates only (10^5-10^7 pN/s); Friddle-Noy-de Yoreo fit, Kd calculated from dGbu; 20 mM HEPES, 300 mM NaCl, about 24 °C
T1 construct: human C5aR with the two sulfation-site tyrosines changed; A legend and the methods print the second mutation as F14F; also called C5aR-d2Y; source: HEK-293S GnTI- cells (BacMam), purified, reconstituted in DOPC/CHS liposomes
T1 sequence (looked up): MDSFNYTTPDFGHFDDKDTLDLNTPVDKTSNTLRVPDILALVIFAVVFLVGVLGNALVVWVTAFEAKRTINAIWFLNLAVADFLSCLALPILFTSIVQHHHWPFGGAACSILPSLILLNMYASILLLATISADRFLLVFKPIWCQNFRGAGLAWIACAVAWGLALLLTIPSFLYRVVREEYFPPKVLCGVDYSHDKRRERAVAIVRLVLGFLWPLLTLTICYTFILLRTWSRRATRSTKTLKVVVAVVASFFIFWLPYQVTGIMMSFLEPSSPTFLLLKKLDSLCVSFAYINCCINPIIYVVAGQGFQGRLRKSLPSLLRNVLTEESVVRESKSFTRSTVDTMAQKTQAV

[2] = target: T2, C5a anaphylatoxin chemotactic receptor 1 (C5aR), wild type (human, UniProt P21730 1-350, sulfonated tyrosines (sulfonation detected by anti-sulfotyrosine Western blot; eliminated by the Y11F and Y14F mutations)); assay: as above
T2 construct: human G protein-coupled C5a receptor (C5aR), wild type; also called C5aR^WT; wtC5aR; source: HEK-293S GnTI- cells (BacMam), purified (Ni-NTA, anti-Flag M1 resin, SEC), reconstituted in DOPC/CHS liposomes; not shown: His8, C-terminal, kept
T2 sequence (looked up): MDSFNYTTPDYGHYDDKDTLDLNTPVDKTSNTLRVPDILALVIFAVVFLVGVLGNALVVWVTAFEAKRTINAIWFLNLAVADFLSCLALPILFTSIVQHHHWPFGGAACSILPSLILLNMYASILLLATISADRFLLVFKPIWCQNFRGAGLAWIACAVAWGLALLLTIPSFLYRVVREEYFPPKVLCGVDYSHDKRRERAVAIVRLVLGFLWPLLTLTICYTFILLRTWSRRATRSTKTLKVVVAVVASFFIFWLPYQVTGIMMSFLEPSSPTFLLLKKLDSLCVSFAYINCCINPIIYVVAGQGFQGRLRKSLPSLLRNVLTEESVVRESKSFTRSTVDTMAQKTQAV

[3] = target: T2, C5a anaphylatoxin chemotactic receptor …; assay: single-molecule force spectroscopy (force-volume AFM + FD-based AFM); ligand on the AFM tip (PEG27 linker, tris-NTA-Ni2+); receptor in DOPC/CHS liposomes adsorbed on mica; low and high loading rates combined (10^2-10^7 pN/s); Friddle-Noy-de Yoreo fit, Kd calculated from dGbu; 20 mM HEPES, 300 mM NaCl, about 24 °C

B1: complement C5a anaphylatoxin (ligand, UniProt P01031 678-751, looked up)
chain: TLQKKIEEIAAKYKHSVVKKCCYDGACVNNDETCEQRAARISLGPRCIKAFTECCVVASQLRANISHKDMQLGR
notes: C5a anaphylatoxin, 74-aa glycoprotein, cut product of complement C5; C-terminal residue R74; numbers count on: the mature C5a; Held on the AFM tip through a PEG27 linker and tris-NTA-Ni2+; also called C5a ligand; endogenous C5a ligand
With B1 the Kd [1] was about 20000 µM, the Kd [2] was about 0.001 µM and the Kd [3] was about 0.00609 µM.
